Results on three molecules are retold here after patent US20260217779A1 (Chugai, published 2026).

To fix the notation:
B1: hCXCL11.0035-G1T4k.one//VHn-G1T4h.one.H435R (Fc fusion)
chain 1: SFPMFKRGRCLCIGPGVKAVKVADIEKASIMYPSNNCDKIEVIITLKENKGQRCLNPKSKQARLIIKKVERKNFEPKSSDKTHTCPPCPAPELRRGPSVFLFPPKPKDTLMISRTPEVTCVVVDVSHEDPEVKFNWYVDGVEVHNAKTKPREEQYNSTYRVVSVLTVLHQDWLNGKEYKCKVSNKGLPSSIEKTISKAKGQPREPQVCTLPPSREEMTKNQVSLWCLVKGFYPSDIAVEWESNGQPENNYKTTPPVLDSDGSFFLYSKLTVDKSRWQEGNVFSCSVMHEALHNHYTQKSLSLSP
chain 2: EPKSSDKTHTCPPCPAPELRRGPSVFLFPPKPKDTLMISRTPEVTCVVVDVSHEDPEVKFNWYVDGVEVHNAKTKPREEQYNSTYRVVSVLTVLHQDWLNGKEYKCKVSNKGLPSSIEKTISKAKGQPREPQVYTLPPSRCEMTKNQVSLSCAVKGFYPSDIAVEWESNGQPENNYKTTPPVLDSDGSFFLVSKLTVDKSRWQEGNVFSCSVMHEALHNRYTQKSLSLSP
B2: hCXCL11.0037-G1T4k.one//VHn-G1T4h.one.H435R (Fc fusion)
chain 1: VFPMFKRGRCLCIGPGVKAVKVADIEKASIMYPSNNCDKIEVIITLKENKGQRCLNPKSKQARLIIKKVERKNFEPKSSDKTHTCPPCPAPELRRGPSVFLFPPKPKDTLMISRTPEVTCVVVDVSHEDPEVKFNWYVDGVEVHNAKTKPREEQYNSTYRVVSVLTVLHQDWLNGKEYKCKVSNKGLPSSIEKTISKAKGQPREPQVCTLPPSREEMTKNQVSLWCLVKGFYPSDIAVEWESNGQPENNYKTTPPVLDSDGSFFLYSKLTVDKSRWQEGNVFSCSVMHEALHNHYTQKSLSLSP
chain 2: EPKSSDKTHTCPPCPAPELRRGPSVFLFPPKPKDTLMISRTPEVTCVVVDVSHEDPEVKFNWYVDGVEVHNAKTKPREEQYNSTYRVVSVLTVLHQDWLNGKEYKCKVSNKGLPSSIEKTISKAKGQPREPQVYTLPPSRCEMTKNQVSLSCAVKGFYPSDIAVEWESNGQPENNYKTTPPVLDSDGSFFLVSKLTVDKSRWQEGNVFSCSVMHEALHNRYTQKSLSLSP
B3: hCXCL11.0036-G1T4k.one//VHn-G1T4h.one.H435R (Fc fusion)
chain 1: TFPMFKRGRCLCIGPGVKAVKVADIEKASIMYPSNNCDKIEVIITLKENKGQRCLNPKSKQARLIIKKVERKNFEPKSSDKTHTCPPCPAPELRRGPSVFLFPPKPKDTLMISRTPEVTCVVVDVSHEDPEVKFNWYVDGVEVHNAKTKPREEQYNSTYRVVSVLTVLHQDWLNGKEYKCKVSNKGLPSSIEKTISKAKGQPREPQVCTLPPSREEMTKNQVSLWCLVKGFYPSDIAVEWESNGQPENNYKTTPPVLDSDGSFFLYSKLTVDKSRWQEGNVFSCSVMHEALHNHYTQKSLSLSP
chain 2: EPKSSDKTHTCPPCPAPELRRGPSVFLFPPKPKDTLMISRTPEVTCVVVDVSHEDPEVKFNWYVDGVEVHNAKTKPREEQYNSTYRVVSVLTVLHQDWLNGKEYKCKVSNKGLPSSIEKTISKAKGQPREPQVYTLPPSRCEMTKNQVSLSCAVKGFYPSDIAVEWESNGQPENNYKTTPPVLDSDGSFFLVSKLTVDKSRWQEGNVFSCSVMHEALHNRYTQKSLSLSP

The target of the assay is T1, human CXCR3 (hCXCR3) on Ba/F3 transfectant cells (human, UniProt P49682 1-368).
T1 sequence: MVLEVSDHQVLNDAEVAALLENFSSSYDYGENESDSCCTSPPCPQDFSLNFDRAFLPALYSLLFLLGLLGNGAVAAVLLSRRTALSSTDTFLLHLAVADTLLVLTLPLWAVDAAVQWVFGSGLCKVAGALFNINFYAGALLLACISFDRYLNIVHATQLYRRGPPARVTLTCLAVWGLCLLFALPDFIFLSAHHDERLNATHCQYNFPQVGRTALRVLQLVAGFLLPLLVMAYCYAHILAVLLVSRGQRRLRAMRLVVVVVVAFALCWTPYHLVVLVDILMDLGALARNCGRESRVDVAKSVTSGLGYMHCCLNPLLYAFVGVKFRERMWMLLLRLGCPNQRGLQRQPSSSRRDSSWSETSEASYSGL
The experiment in a line: cell-based or functional assay.
Turning to B1, the “Activity retention rate at 33 nM” value came out at 161%, the “Activity retention rate at 100 nM” value was found to be 95%, the “Activity retention rate at 300 nM” value came to 42% and the “Luminescence value at 33 nM” value was 1.23e+07. The “Luminescence value at 100 nM” value is 1.58e+07 and the “Luminescence value at 300 nM” value turned out to be 5.23e+06.

With B2, the “Activity retention rate at 33 nM” value stood at 111%, the “Activity retention rate at 100 nM” value was found to be 111%, the “Activity retention rate at 300 nM” value was 73% and the “Luminescence value at 33 nM” value is 8.51e+06. The “Luminescence value at 100 nM” value was 1.85e+07 and the “Luminescence value at 300 nM” value amounted to 9.07e+06.

B3: the “Activity retention rate at 33 nM” value was determined as 140%, the “Activity retention rate at 100 nM” value was determined as 105%, the “Activity retention rate at 300 nM” value was 53% and the “Luminescence value at 33 nM” value came to 1.07e+07. The “Luminescence value at 100 nM” value was found to be 1.76e+07 and the “Luminescence value at 300 nM” value was determined as 6.59e+06.
